Experimental data: the DeepSol protein solubility set

Test: soluble on expression in E. coli; label from the status in PepcDB or PDB records
In the case of “MGSDKIHHHHHHMIALGIEGTAWSLSIGVVDEEGVIALENDPYIPKEGGIHPREASQHHSERLPSLLSRVFEKVDKNSIDVVAFSQGPGMGPCLRVVATAARLLAIKLEKPLVGVNHCLAHVEVGRWQTGARKPVSLYVSGGNSQVIARRGNRYRVFGETLDIGIGNALDKLARHMGLKHPGGPKIEELAKKGQKYHFLPYVVKGMDFSFSGMVTAAQRLFDSGVRMEDVAFSFQETAFAMLTEVTERALAYLDLNEVLLVGGVAANKRLQEMLRIMCEDRGAKFYVPPKELAGDNGAMIAYTGLLMYKHGHQTPVEKSYVRPDFRIEDVEVNWD”, the “soluble on expression in E. coli” value is reported as “not soluble”. With “MGSDKIHHHHHHMIDVTFDPTLANTLAQSLKLTAIALPLDLQIGDLTRLTDAKNSYWGLKARYTKSGGASAEFAAVTTSQQRLQQVLATGATLRVWTSVNPADQLGWGWLCSQLVQAQFMGVIQRIQIPLSGPVMTEMGPVFMQNSTIGELDEPALEHDLATAKVVTAADWVAFSYHWQACYEDNAALRLILGGRVVGVPQDFLDPLVRTCYRPEQSTAQTLGRILDNYPIGMPNWWWQYRIDQIAKASVR” the “soluble on expression in E. coli” value was “not soluble”. With “MGSDKIHHHHHHMIGYGKTVRDIRTSKGIHQKDLYDNIISKSFAIEFEKGKHDITLSLFEKILKRMNMDLDEFFYIHRELSKSAEKNYLCMNQERGNIYDLESLELLYSELSKHDGELVEVWKAFVRSRIKMVEHLLKYHEFTVDVITAKDKCTIQKYLFSIDTWTLEELKICANSIYFFEEDLQIQFLNQVIKAIQPYKNYDRARRVLCTLLINTIEVFISRSQLSSASKLLILLDSLCIYNESAFYRNISNFLKGLLKMQSNQIKEGYAQAKKAIQLMNDLHFEEIAYLYEILLDQFIQLEGIDILNY” the “soluble on expression in E. coli” value was “not soluble”. With “MGSDKIHHHHHHMIHIRPFQHQDADYRVMADVYNALAPDAPLSAIEWRIRDEIHNPNLPLCRWIGELDGRAGGYAEYYQPTWCADPTHLEMQIVVHPAVQGRGLGRALWQHLQMAWQPLRPHHIWLKVREDWQAGLMFAGRRQFHESRRVWVSRLDLATFDPQPFSGSIERVTAQQIELISFAALATADQGFWQQLYEFERQTTGDVPSPFPVTMPTYDQWIKLYQPDHGALWEGSFAAVHEGQIVGISTLETIDDSTDVEVGFTAVRRDYRGRGIALALKLCTIAYAGAQGLSGIRTDNDSTNLAMWHINERLGFRRGPVWIVLHRCEQNEEVT” the “soluble on expression in E. coli” value was “not soluble”. In the case of “MGSDKIHHHHHHMIHWLKVPNNPELAKYIACYWFLEKLPNAEGHNDYPKLNPDPASHLILALPQQNFRYKSDNGVTQMDGCHWLHPHGKTYELDHAKAVACIGIKFHVGALYSLPTFMDLQEQTPQAVVDTVEAISFENINFAQSNFDDHKLSDNNQLNEHDLVILARNSPDDCAEMLDKLCLPWLLKNHEDNHSELTRKVLPLLAKAAINSLGDTLFCSQRTLERSFLKVSGVTLKQCQSMNRLEAILEFLYQREQSDIDWVDIAYQFGFSDQPHLIRYLKKQLGLTPQDYALQRGFTIDVYGGVDSL”, the “soluble on expression in E. coli” value is reported as “not soluble”. In the case of “MGSDKIHHHHHHMIIEHARDMLKRERLFFDKIQAHIGEVNGTISIGCSSLIGQTLLPEVLSLYNSQFPNVEIQVQVGSTEQIKAHHRDYHVMITRGNKVMNLSNTHLFNDEHYFIYPKDRKEDVTKLPFIEFQADPIYINQIKQWYNDHLGHDYHATITVDQVATCKEMLLSGVGVTILPKIMMKNIDKNMFEFEKVTIDKKPLIRSTYMSYDASMLQLPQVDAFVNLMLNFIR”, the “soluble on expression in E. coli” value is reported as “not soluble”. In the case of “MGSDKIHHHHHHMIIGGLYMKFFEENYSQEIPTRIKNLRKKHNITQSELGNAGQVSQVESGKRPITSSMLVYLNALTASNYTYIVFGELDEFIENLFHYFFSSILYRDLEAVDENLYSFMSDDLISIQSSCLSIAKTFANFNIQRKRFMISTETEMDTFHKKDDIDVWVGGKSYNPARSFRNNPINELTVIDFEEMADILLLMLRDNLIRSFEINVCNTLFELDKNGEPTTFNLDKIDSIINKWWSENVSTEIIPNLIKKLRENPLFNIGFMVNDILERMYKEDIPKSYLTSVPLVISKKARSTLSIKSNGSQKIDKSKFAQILSL”, the “soluble on expression in E. coli” value is reported as “not soluble”. With “MGSDKIHHHHHHMIISDVLYGEFEVDQVVEELILSKSVQRLKGIHQTGASYLVNKEWNVTRFDHSVGVMLLVKKLGGSVEEQIAGLLHDVSHTAFSHVVDYVFDNRNESYHEEIFSSVVKHSEIPAILAKYGYNYEEILLDDSKWTLLERSAPELCADRVDYTLRDMYTYGYISLEEAHSFLEDVIEVNGKMVLQNIEMAEWFTETYYKEVIDFFMQPMNSYGNDMLAKTLKLALHKKVIHADDFLLEDDELISKLQQCSDPEVHALVSKVHPNVKVKEDRNDYDLYQNNKVRLIDPSLLREGEVVPSSVVSENIRKMSEIAYEKAVRGMYVKVVSD” the “soluble on expression in E. coli” value was “not soluble”. For “MGSDKIHHHHHHMIKNNRVYGIIGVGAYMANFNADLSGYPKTTTNNDIFGSDKALKYPMKRMWLIEGDKVFYIKSMTIAKSKKDKEMEILQPKDLIERYEDLFGKEWDANLTVKDVAKDLFSTVDIMNFGATFTGSESESKTAKKKIGHNISITGAVQINQGFNLYEKTNVLVQDILSPFRNPNDKSEDKTATSIGTKIVTDEAHYVYSFSVNPANYADYLGLIDGFEGYTTEAYEKFKRAARVATTAFNTNSKSGCENELALFIELKEDSKLFLANLDRYVEVRKKEKQTLYDLSKLAEIIAPQQEEIQSIELFHNPISVEVNYGSLPCTVNSIF”, the “soluble on expression in E. coli” value was “not soluble”. In the case of “MGSDKIHHHHHHMIKQVNPHFKEFLFDWNQKFQFLVGGYGSSKSYHVALKIVLKLLREKRTALVIREVYDTHRDSTFSLFDELVSDLKLDHIVRCVSSPMQIRFSNGSRIIFKGMDKPAKLKSINNISLIWIEECSEVKYEGFKELLGRLRHPTLPLHMILSTNPVGEDNWTFKHFFKDDREKRFVLDDKELYEKRIIVSNDTYYHHSTADDNLFLPESYVQQLEELKEYDPDLYRIARKGHFGVNGIRVLPQFEERPHEEVMTAISNINRPLKRVGMDFGFVESYNAVVRVAVDHEKKYLYIYWEYYKNGLTDDKTAEELKEFAETKELIKADSAEPKTIRYFQQHGFNMVGARKYQGSRLQYTKKIKRFRKIICSDRCENTIYELKPLAYATDKLGNIIEDEFTIDPHTLSAIWYALDDYEVTDLKEESKGRPQRSRPGRR”, the “soluble on expression in E. coli” value is reported as “not soluble”. With “MGSDKIHHHHHHMILAAKLFGISENGIRVAVTRLASEGVIVSAERGFYQLSEQSLEWADVMLNRRAGLKETKAWNQKYLCVLTGTLGRVDRTALKRRERALKKYGFRELEPSVYIRPDNLVISLEDMLEHMKSIGLESGAKMCHINSFDQITTGMIKDLWQTENLNKNYEKYSHIIQHWLSRVPALGLEDAARESLLLGRQTISLLMNDPLLPEPFVNVEARDQFTADVKKLDEVGQRLWKQLHELTFGTAATSLLNLELPAVADVTPKILN” the “soluble on expression in E. coli” value was “not soluble”. In the case of “MGSDKIHHHHHHMILEALQYAATRAVTPKEFRPHVRYSVNLWARANRCAKAWAEHENNSRQFVLQSAKKLKQRRTAVVLGSGLLRDVPHDALVAMFDTVVMVDLVHLASVQAKLRLNAKKNVRIANRDLSGFDDLLAGRPAEPLDFLRRVPYLDFVVSANLLSQIGTGAQHRLEREKIANVPGDLLPKLIQTHLDALAGLPCKVCLVTDTAFDVIGKDGSVQQHEDLLHGIEIASPAAAWDWPLAPFGEESRDYRIVHHVIAREMT”, the “soluble on expression in E. coli” value is reported as “not soluble”. In the case of “MGSDKIHHHHHHMILKTNLFGHTYQFKSITDVLAKANEEKSGDRLAGVAAESAEERVAAKVVLSKMTLGDLRNNPVVPYETDEVTRIIQDQVNDRIHDSIKNWTVEELREWILDHKTTDADIKRVARGLTSEIIAAVTKLMSNLDLIYGAKKIRVIAHANTTIGLPGTFSARLQPNHPTDDPDGILASLMEGLTYGIGDAVIGLNPVDDSTDSVVRLLNKFEEFRSKWDVPTQTCVLAHVKTQMEAMRRGAPTGLVFQSIAGSEKGNTAFGFDGATIEEARQLALQSGAATGPNVMYFETGQGSELSSDAHFGVDQVTMEARCYGFAKKFDPFLVNTVVGFIGPEYLYDSKQVIRAGLEDHFMGKLTGISMGCDVCYTNHMKADQNDVENLSVLLTAAGCNFIMGIPHGDDVMLNYQTTGYHETATLRELFGLKPIKEFDQWMEKMGFSENGKLTSRAGDASIFLK”, the “soluble on expression in E. coli” value is reported as “not soluble”. In the case of “MGSDKIHHHHHHMINNYLERQIKENFPYQPTFEQEIAVKSLSEFLLSTLADEVFILRGYAGTGKTSLVGALVKTMDQLQQKAVLLAPTGRAAKVFSSYAGHPAFTIHKKIYRQQSFSNETSNFSINDNLATNTLFIVDEASMISNEGLSGSMFGTGRLLDDLIQFVYSGQGCRLLLMGDTAQLPPVGEELSPALFADALKGYGLEVREVDLTQVVRQIQESGILWNATQLRQLIAEDNCYSLPKIKITGFPDIKMVPGTELIDAITSCYDHDGMDETIVICRSNKRANLYNNGIRAQILWREDELNTGDMLMIAKNNYYWTEQYKEMDFIANGEIAVVRRVRKTREMYGFRFAEVTLRFPDQNDFELDANLLLDTLHSDSPALPKVDNDRLFYTILEDYADISNKRDRMKKMKADPHYNALQVKYAYAITCHKAQGGQWQNVFLDQGYMTDEYLTPDYFRWLYTAFTRATKTLYLVNYPKEQIL”, the “soluble on expression in E. coli” value is reported as “not soluble”. With “MGSDKIHHHHHHMINQVYRLVSERQFEEANIEEALTEDVVVVRPTYLSICAADQRYYTGSRGKEMLSKKLPMALIHEGVGQVTYDATGEFEIGTKVVMIPNTPTEDDPVIAENYRRSSLFRSSGYDGLMQENVFMRRDRVVRLPENMDMEVAAYSELISVAFHAITRFKQKANANQSVFGVWGDGNLGFITCLLLKTIYPESKVIIFGKTQYKLDFFSFVDEAHLVDEIPEGLVIDNAFECAGGKGSQYAVEQIIDLIKPEGTISLLGVSENPIEFNSRMVLEKGLTVFGSSRSGKEDFQNTVNFLSENERAVEYLSSLIGQRKVVRNLQDIIEAFETDLRNPFGKTVMEWKV” the “soluble on expression in E. coli” value was “not soluble”. In the case of “MGSDKIHHHHHHMINRKPFFIELELTYKCSQQCIYCHNPPKDLKFYIADKVPKPRSVIEMNELNLSEWISVINQIKRLDEKYEGIMDVVITGGEPLLRSDLEEILSYVTRQKLRHMLLSSGEPISDDRITKLLESGLEKIRINLTSHKYVFNIQSPIMHIKNEVAKKINIAKKFKDFGVKEVGGNIVLTSYYLDFLEEIAELAYKSNLDWIEIHSVIKVGHGYINQKFIVPDPNDERTIQEKLKRLIEIYGENFIQNYVDTDILYSRIPIPTNWGEVGLVIAPNGDIYPSSEATSIPLSKLGNIKNDSLVEIWFNNLLLNKIRSLSFLREPCKSCEVKKLCRGGFRFNAYITKNDLFAPDPSCQIVKDYIGKS”, the “soluble on expression in E. coli” value is reported as “not soluble”. With “MGSDKIHHHHHHMIPPVPQKGRGTAHNPHNRFAPGHSVAEDDGWYQEVPQTQGTEVRIETAKSVISRNTSPDLPFDRSINPYRGCEHGCIYCYARPSHAYWDLSPGLDFETKLIAKTNAAEVLAQQLSKPGYVCAPINLGSNTDPYQPIEREQLLTRRLLEVLLRFRHPVTIVTKGSLVLRDLDLLAEMARQRLARVMISLTTLDDGLKRVLEPRAASPGARLRAIRVLREAGVPVGVLCSPMIPMINDSELERLLEAAKEAGAQSAAYMMLRLPLEVAPLFEQWLQDHYPQRAAHVLSLIRQSRGGELYDSRFGVRMRGEGVFAELLAQRFAKAMKRLDFEGREAQELDCSAFCPPGGQMALF” the “soluble on expression in E. coli” value was “not soluble”. With “MGSDKIHHHHHHMIQITPFLDSKRKTPLYVQLYQYIKEGIESGQLKSDTFLPSIRELALHLRVSKNTVEGAYQQLIAEGYVESIPRVGLKILELEATFLCDKGGKQLQNVTMGEIQREHKSIEFDFVYGEIDTAHLPLKVWKRHVQEVLKGASEELLMYGDPFGDWHLRQELSHYLLQSRGVSCRPEQVVITAGTQHAVSLLCQLLSLHGSTVAFEDPGYNGVRSVFINQGCRIAPIPIEADGLSLSRLHESHANIVYVTPSHQLPCGMILPVHKRSLLLEWAYEHEGYIVEDDYDSEFRYQGQPIPALKALDQNEKVIYLGTFSKSFLPSIRVSYMVLPGELVPLYQQKLANYNQAASQLIQRALYTFIKDGDFQRHIRRMKKVYQSKHHTLLKSVKTYLGDRVTVIGEKSGLHVLLNVPGREDHELIEKAMACGVKVYSTKTFWYNPKNQCSSFIMLGFGKLSEEAIKKGIRRLQQAWF” the “soluble on expression in E. coli” value was “not soluble”.
